In the supplement of paper PMC10126150:
± gives the standard deviation of the averaged measurements.

Test system: ATP
Experiment: switch fluorescence ratio, 500 uM ATP over buffer (Cy3 cluster intensity, sum of 5 cycles each) (fold (ratio)); higher = stronger signal-on switching upon ATP binding; sequences stand for … in TCGTCGGCAGCGTCAGATGTGTATAAGAGACAGTTTTTTTTTTTTTTTTTTTTTTTTT…TC
Conditions: aptamer strand: ATP DNA aptamer (quencher-CACCTGGGGGAGTATTGCGGAGGAAGG + anchor), 100 nM annealed; ATP concentration: 500 uM
Method in brief: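 Cy3-labelled switching-strand clusters on a modified Illumina MiSeq flow-cell were annealed to 100 nM quencher-labelled ATP aptamer and imaged first in selection buffer, then after 15 min with 500 uM ATP at 22 °C. NaOH stripping and re-annealing separated each of five buffer/ATP cycles, and clusters outside 100-1000 RFU were excluded. The fluorescence ratio sums target-cycle Cy3 intensity over buffer-cycle Cy3 intensity per cluster and averages it per switch-domain sequence.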
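Also: ATP exposure 15 min at 22 °C before imaging.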

Row | Sequence | switch fluorescence ratio
1 | CCTCATGGCA | 2.11 ± 0.17
2 | CCTCATTGGT | 1.026 ± 0.0093
3 | CCTCGACAGC | 3.43 ± 0.42
4 | CCTCGCGGGG | 1.08 ± 0.032
5 | CCTCGGTATG | 1.24 ± 0.025
6 | CCTCGTGTTT | 1.08 ± 0.0061
7 | CCTCGTTGAA | 1.22 ± 0.026
8 | CCTCTACG | 1.41 ± 0.044
9 | CCTGAGAACA | 1.02 ± 0.031
10 | CCTGAGACAC | 1.08 ± 0.052
11 | CCTGAGGGAT | 1.86 ± 1.4
12 | CCTGAGTCTG | 1.57 ± 0.038
13 | CCTGCTGTCC | 1.16 ± 0.051
14 | CCTGGAAGCG | 1.08 ± 0.045
15 | CCTGGAGGGG | 1.07 ± 0.066
16 | CCTGGATCGG | 1.09 ± 0.048
17 | CCTGGCGCTT | 2.06 ± 0.86
18 | CCTGGCGGCT | 1.06 ± 0.018
19 | CCTGGGAAGG | 0.991 ± 0.025
20 | CCTGGGGCAG | 1.17 ± 0.093
21 | CCTGGGGTTT | 1.09 ± 0.15
22 | CCTGGGTACC | 1.039 ± 0.0072
23 | CCTGGGTCTA | 1.03 ± 0.023
24 | CCTGGGTTAT | 1.02 ± 0.011
25 | CCTGGTTTTG | 1.04 ± 0.028
26 | CCTGGTTTTT | 1.12 ± 0.15

Row | Sequence | switch fluorescence ratio
27 | CCTGTAAAGA | 1.02 ± 0.019
28 | CCTGTAGTCT | 1.04 ± 0.039
29 | CCTGTAGTTG | 1.04 ± 0.037
30 | CCTGTATCTT | 1.03 ± 0.018
31 | CCTGTCAGGC | 1.04 ± 0.026
32 | CCTGTCATCC | 1.17 ± 0.023
33 | CCTGTGATAT | 1.3 ± 0.031
34 | CCTGTGCAGG | 1.11 ± 0.02
35 | CCTGTGGATC | 1.05 ± 0.042
36 | CCTGTTACTT | 0.97 ± 0.04
37 | CCTGTTTTAC | 1.24 ± 0.045
38 | CCTTAAGTGT | 1.04 ± 0.041
39 | CCTTAATCTT | 0.987 ± 0.026
40 | CCTTACATCG | 1.12 ± 0.044
41 | CCTTACCTGT | 1.07 ± 0.065
42 | CCTTAGATTA | 1.01 ± 0.031
43 | CCTTATCAGG | 1.04 ± 0.02
44 | CCTTCACCGT | 2.21 ± 0.14
45 | CCTTCAGCGT | 1.73 ± 0.086
46 | CCTTCCTTGT | 2.06 ± 0.031
47 | CCTTCGGAGT | 3.99 ± 2.3
48 | CCTTCTTTTT | 1.06 ± 0.12
49 | CCTTGCTGTG | 1.06 ± 0.039
50 | CCTTGTACTG | 1.07 ± 0.042
51 | CCTTGTATTT | 1.01 ± 0.018
52 | CCTTGTCGG | 1.07 ± 0.083

Row | Sequence | switch fluorescence ratio
53 | CCTTGTGTTG | 1.01 ± 0.017
54 | CCTTTGGGCA | 1.05 ± 0.023
55 | CCTTTGGGTC | 0.98 ± 0.014
56 | CCTTTTCGTG | 1.003 ± 0.0043
57 | CCTTTTGAAC | 1.04 ± 0.028
58 | CCTTTTTCAC | 1.03 ± 0.032
59 | CCTTTTTGGG | 0.9831 ± 0.0032
60 | CGAAACGGGG | 0.983 ± 0.042
61 | CGAAACTCTG | 1 ± 0.03
62 | CGAAACTTGA | 1.02 ± 0.038
63 | CGAAAGAGAG | 0.9911 ± 0.0022
64 | CGAAAGGGTT | 0.9983 ± 0.0072
65 | CGAAATGGCG | 1.053 ± 0.0038
66 | CGAACGGTGG | 0.998 ± 0.056
67 | CGAACGGTTT | 0.989 ± 0.016
68 | CGAACTCCTG | 1.05 ± 0.014
69 | CGAACTCGGA | 1.012 ± 0.0076
70 | CGAAGAGGGA | 0.9864 ± 0.0081
71 | CGAAGAGGTT | 0.98936 ± 0.00044
72 | CGAAGCTAGG | 2.16 ± 0.21
73 | CGAAGCTCTG | 1.09 ± 0.013
74 | CGAAGGGAAT | 1.03 ± 0.033
75 | CGAAGGGTGT | 0.999 ± 0.024
76 | CGAAGGTTTC | 1.034 ± 0.0023
77 | CGAATAAGCG | 0.995 ± 0.023
78 | CGAATACATA | 1.1 ± 0.011

Row | Sequence | switch fluorescence ratio
79 | CGAATAGGCT | 1.006 ± 0.0029
80 | CGAATGGCCC | 1 ± 0.012
81 | CGAATGGGGG | 1 ± 0.029
82 | CGAATTCAGG | 1.012 ± 0.0068
83 | CGAATTGTTT | 0.962 ± 0.03
84 | CGAATTTACC | 1.19 ± 0.15
85 | CGACAAGAAC | 2.94 ± 0.18
86 | CGACAGATGT | 1.01 ± 0.018
87 | CGACAGGATG | 1.01 ± 0.033
88 | CGACATACGA | 1.56 ± 0.033
89 | CGACGAACGA | 1.54 ± 0.07
90 | CGACGAGGGG | 1 ± 0.03
91 | CGACGATACG | 0.991 ± 0.022
92 | CGACGGATTT | 1.12 ± 0.029
93 | CGACGGCTGG | 1.01 ± 0.07
94 | CGACGGGCGG | 1.02 ± 0.032
95 | CGACGTGGCG | 0.981 ± 0.064
96 | CGACGTTGGT | 1.08 ± 0.043
97 | CGACTAGCGA | 1.4082 ± 0.00063
98 | CGACTGGGAG | 0.981 ± 0.026
99 | CGAGACAGGT | 1.04 ± 0.0098
100 | CGAGACGTAT | 1.09 ± 0.042
101 | CGAGAGACCG | 0.951 ± 0.013
102 | CGAGAGGCGA | 1.05 ± 0.027
103 | CGAGATAAGG | 1 ± 0.014
104 | CGAGATATTG | 0.9827 ± 0.0019

Row | Sequence | switch fluorescence ratio
105 | CGAGCACGGG | 1.47 ± 0.053
106 | CGAGCCCTTA | 0.986 ± 0.059
107 | CGAGCTTATC | 1.2 ± 0.056
108 | CGAGCTTCGT | 1.01 ± 0.034
109 | CGAGGACTTC | 1.02 ± 0.012
110 | CGAGGCAGCA | 1.199 ± 0.009
111 | CGAGGCCTCG | 0.994 ± 0.038
112 | CGAGGCGGAG | 1.01 ± 0.028
113 | CGAGGGAGTT | 0.986 ± 0.044
114 | CGAGGGGA | 1.018 ± 0.0082
115 | CGAGGGGATG | 1.006 ± 0.0088
116 | CGAGGGGCAC | 0.997 ± 0.013
117 | CGAGGGGCCA | 1 ± 0.027
118 | CGAGGGGGAT | 1.19 ± 0.27
119 | CGAGGGGGGC | 1.02 ± 0.092
120 | CGAGGGGGGG | 1.01 ± 0.025
121 | CGAGGGGGTT | 1 ± 0.02
122 | CGAGGGGTCC | 0.975 ± 0.043
123 | CGAGGGTGCA | 1.04 ± 0.021
124 | CGAGGTAGAG | 1.01 ± 0.049
125 | CGAGGTGAAG | 0.9922 ± 0.0049
126 | CGAGTAGCGG | 1.01 ± 0.036
127 | CGAGTAGTGC | 1.12 ± 0.033
128 | CGAGTATGCA | 0.981 ± 0.024
129 | CGAGTCTGCC | 1.04 ± 0.075
130 | CGAGTTAAAT | 1.01 ± 0.037

Row | Sequence | switch fluorescence ratio
131 | CGAGTTGGAG | 1.01 ± 0.025
132 | CGAGTTTGGG | 1.001 ± 0.0031
133 | CGATAAAGGT | 1.016 ± 0.0095
134 | CGATAACCTT | 1.48 ± 0.48
135 | CGATAATGTG | 0.9727 ± 0.0063
136 | CGATATCAAT | 1.061 ± 0.0062
137 | CGATATGGGC | 1.02 ± 0.014
138 | CGATATGTCG | 1.41 ± 0.33
139 | CGATATTGGC | 0.985 ± 0.083
140 | CGATCAGTTG | 0.9853 ± 0.004
141 | CGATCCGGGA | 0.9982 ± 0.006
142 | CGATCGAGGA | 0.991 ± 0.036
143 | CGATCGGTCA | 1.0097 ± 0.00057
144 | CGATGAGAGT | 1.03 ± 0.064
145 | CGATGAGGTA | 0.968 ± 0.06
146 | CGATGGTTGA | 1 ± 0.042
147 | CGATGTAGTC | 1.05 ± 0.022
148 | CGATGTGTAC | 2.71 ± 0.17
149 | CGATGTTTGG | 0.988 ± 0.025
150 | CGATTAGGTA | 1 ± 0.041
151 | CGATTATCGG | 0.999 ± 0.014
152 | CGATTCACTT | 1.02 ± 0.021
153 | CGATTGCATT | 1.27 ± 0.045
